Measurements reported in paper PMC10968091, “Crystallization of Ethylene Plant Hormone Receptor—Screening for Structure” (Biomolecules, 2024).

Biological target: the molecule itself
Experiment: SDS-PAGE and Western blot; IMAC-purified receptor constructs on SDS-PAGE (colloidal Coomassie) and Western blot (anti-GFP-HRP for ETR2^1-186 mT2, anti-His-HRP for the others); SDS-stable dimers seen beside monomers

Protein	binding result
ETR2^1-186 mT2 (domain or fragment, Arabidopsis thaliana, UniProt Q0WPQ2 1-186, looked up, Ethylene response 2 (ETR2), Arabidopsis thaliana, residues 1-186 (aa 187-773 removed); transmembrane domain; From pGEX4T-1; The plasmid name and the methods put mT2 next to the C-terminal 10x His-tag; also called ETR2 (aa 1-186); ETR2^1-186 mT2 10x His; source: E. coli C41(DE3)∆(ompF-acrAB), purified (IMAC); not shown: His10, C-terminal, kept) MVKEIASWLLILSMVVFVSPVLAINGGGYPRCNCEDEGNSFWSTENILETQRVSDFLIAVAYFSIPIELLYFVSCSNVPFKWVLFEFIAFIVLCGMTHLLHGWTYSAHPFRLMMAFTVFKMLTALVSCATAITLITLIPLLLKVKVREFMLKKKAHELGREVGLILIKKETGFHVRMLTQEIRKSL	binds
ETR1^1-407 (domain or fragment, Arabidopsis thaliana, UniProt P49333 1-407, looked up, Ethylene response 1 (ETR1), Arabidopsis thaliana, residues 1-407; From pETEV16b; also called AtETR1^1-407; source: E. coli C41(DE3)∆(ompF-acrAB), purified (IMAC); not shown: His10, N-terminal, kept) MEVCNCIEPQWPADELLMKYQYISDFFIAIAYFSIPLELIYFVKKSAVFPYRWVLVQFGAFIVLCGATHLINLWTFTTHSRTVALVMTTAKVLTAVVSCATALMLVHIIPDLLSVKTRELFLKNKAAELDREMGLIRTQEETGRHVRMLTHEIRSTLDRHTILKTTLVELGRTLALEECALWMPTRTGLELQLSYTLRHQHPVEYTVPIQLPVINQVFGTSRAVKISPNSPVARLRPVSGKYMLGEVVAVRVPLLHLSNFQINDWPELSTKRYALMVLMLPSDSARQWHVHELELVEVVADQVAVALSHAAILEESMRARDLLMEQNVALDLARREAETAIRARNDFLAVMNHEMRTPMHAIIALSSLLQETELTPEQRLMVETILKSSNLLATLMNDVLDLSRLED	binds
ETR1^1-316 (domain or fragment, Arabidopsis thaliana, UniProt P49333 1-316, looked up, From pETEV16b; also called AtETR1^1-316; ETR1 (aa 1-316); source: E. coli C41(DE3)∆(ompF-acrAB), purified (IMAC); not shown: His10, N-terminal, kept) MEVCNCIEPQWPADELLMKYQYISDFFIAIAYFSIPLELIYFVKKSAVFPYRWVLVQFGAFIVLCGATHLINLWTFTTHSRTVALVMTTAKVLTAVVSCATALMLVHIIPDLLSVKTRELFLKNKAAELDREMGLIRTQEETGRHVRMLTHEIRSTLDRHTILKTTLVELGRTLALEECALWMPTRTGLELQLSYTLRHQHPVEYTVPIQLPVINQVFGTSRAVKISPNSPVARLRPVSGKYMLGEVVAVRVPLLHLSNFQINDWPELSTKRYALMVLMLPSDSARQWHVHELELVEVVADQVAVALSHAAILEES	binds
ETR1^1-157 mT2 (domain or fragment, Arabidopsis thaliana, UniProt P49333 1-157, looked up, Ethylene response 1 (ETR1), Arabidopsis thaliana, residues 1-157 (aa 158-738 removed); transmembrane domain; From pGEX4T-1; also called ETR1^1-157 mT2 10x His; source: E. coli C41(DE3)∆(ompF-acrAB), purified (IMAC); not shown: His10, C-terminal, kept) MEVCNCIEPQWPADELLMKYQYISDFFIAIAYFSIPLELIYFVKKSAVFPYRWVLVQFGAFIVLCGATHLINLWTFTTHSRTVALVMTTAKVLTAVVSCATALMLVHIIPDLLSVKTRELFLKNKAAELDREMGLIRTQEETGRHVRMLTHEIRSTL	binds
